Measurements from patent US20230312678A1.
Read-outs that look alike come from different tables or passages of the source.

Columns and labels:
[1] = biological target: ED-tagged full-length PD-1 receptor stably expressed in Jurkat cells (PathHunter PD-1 Signaling Bioassay, DiscoverX) (UniProt Q15116); experiment: cell-based or functional assay
[2] = biological target: ED-tagged full-length PD-1 receptor stably expressed in Jurkat cells (PathHunter PD-1 Signaling Bioassay, DiscoverX) (UniProt Q15116); experiment: cell-based or functional assay; remark: listed apart in the source

Sequence of UniProt Q15116 (Q15116 25-288): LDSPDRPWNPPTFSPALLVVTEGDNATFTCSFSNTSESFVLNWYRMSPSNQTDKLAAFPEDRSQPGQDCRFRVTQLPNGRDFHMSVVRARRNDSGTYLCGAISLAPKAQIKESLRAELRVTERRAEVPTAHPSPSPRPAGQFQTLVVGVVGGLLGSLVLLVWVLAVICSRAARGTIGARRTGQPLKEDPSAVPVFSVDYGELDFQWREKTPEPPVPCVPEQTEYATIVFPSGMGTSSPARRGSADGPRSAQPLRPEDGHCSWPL

| Relative Light Units (RLU), modified PathHunter PD-1 Signaling Bioassay; fold against soluble PD-L1-Fc [1] [fold] | Relative Light Units (RLU), modified PathHunter PD-1 Signaling Bioassay; fold against soluble PD-L1-Fc [2] [fold] | Relative Light Units (RLU), modified PathHunter PD-1 Signaling Bioassay; fold against soluble PD-L2-Fc [1] [fold] | Relative Light Units (RLU), modified PathHunter PD-1 Signaling Bioassay; fold against soluble PD-L2-Fc [2] [fold] | Substance |
| --- | --- | --- | --- | --- |
| 10000 | 1000 |  |  | hPD-L1-Fc-GPI artificial synapses engineered from exosomes (hPDL1-Fc-GPI fusion polypeptide displayed on the exosome surface) (Fc fusion) |
|  |  | 10000 | 1000 | hPD-L2-Fc-GPI artificial synapses engineered from exosomes (hPDL2-Fc-GPI fusion polypeptide displayed on the exosome surface) (Fc fusion) |
